Data as given in US7056679 (ANTYRA, dated 2006).

T1: DGI-2 polypeptide (UniProt Q15004 1-111, limits assumed)
T1 construct: Vector-derived residues or tag of pIVEX2.3 are not described for this construct; also called KIAA0101
T1 sequence (looked up): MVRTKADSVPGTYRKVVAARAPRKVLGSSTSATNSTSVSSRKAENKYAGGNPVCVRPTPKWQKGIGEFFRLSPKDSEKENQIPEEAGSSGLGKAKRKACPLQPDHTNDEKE

B1: DGI-2-40F-3-B1 (peptide)
peptide: HGTRLRGVDYVMTWAGWQGYSSRKHVQQAVAGSSPGSDELAAAGAPVPYPDPLEPRP
notes: not shown: phage gene III coat protein (pCANTAB5E)
B2: DGL-2-40F-3-D10 (peptide)
peptide: TLVTEGNKGSVKAHKDIGVWQLWWDWLSVTDSETVGRVSHAAAGAPVPYPDPLEPRP
notes: as for B1
B3: DGI-2-40F-3-A7 (peptide)
peptide: CAYRWGLFRGPGRVDYDLQVVGIMMWPGPIPDRSSRGSVAAAAGAPVPYPDPLEPRP
notes: as for B1
B4: DGI-2-20R-3-D5 (peptide)
peptide: VAFGEQIRVAMAGTLWQRWRAAAGAPVPYPDPLEPRP
notes: as for B1
B5: DGI-2-40F-3-A12 (peptide)
peptide: RRTQPAYRSGADDRTSGFYCYVTSALSAGAWMPFLPRRLAAAAGAPVPYPDPLEPRP
notes: as for B1
B6: DGI-2-40F-3-C7 (peptide)
peptide: HPWVTNMLVFQRPPPPGFWLSDTTPRQRNGLGQVERPSVDAAAGAPVPYPDPLEPRP
notes: as for B1
B7: DGI-2-40F-3-D3 (peptide)
peptide: VQFAMTLSSRLWQHARHPLTDDAPPTVSFGTRRETLAGKAAAAGAPVPYPDPLEPRP
notes: as for B1
B8: DGI-2-20C-3-D12 (peptide)
peptide: LVIQCSASVVACDLYWNYVGCLAAGAAAGAPVPYPDPLEPRP
notes: as for B1
B9: DGI-2-20F-3-B1 (peptide)
peptide: LSRIWRGVIESAREVESRGIAAAGAPVPYPDPLEPRP
notes: as for B1
B10: DGI-2-40F-3-B72 (peptide)
peptide: PKDGAAFKGSDFIQGGQTVMERAPALWWRDGGGQWEAPSTAAAGAPVPYPDPLEPRP
notes: as for B1
B11: DGI-2-40F-3-B5 (peptide)
peptide: RSRSSSGASGSMLRVQNHMVLGSWMVRQPMGSMTPFHGHGAAAGAPVPYPDPLEPRP
notes: as for B1
B12: DGI-2-20R-4-G6 (peptide)
peptide: PAMGHCMQVLGPVLEGRSRDQVGRAAAGAPVPYPDPLEPRP
notes: as for B1
B13: DGI-2-20F-3-C2 (peptide)
peptide: MAVLPAARDFGGVVQGGVSGAAAGAPVPYPDPLEPRP
notes: as for B1
B14: DGI-2-20F-3-D112 (peptide)
peptide: YDQVWNSLLAAVLGGQELVNAAAGAPVPYPDPLEPRP
notes: as for B1
B15: DGI-2-20F-3-A6 (peptide)
peptide: FSSTGILLRSGRATAVGHVTAAAGAPVPYPDPLEPRP
notes: as for B1
B16: DGI-2-40F-3-C52 (peptide)
peptide: GLLFTSSPYQCFWVHCTLTMSPLSVLGDLSSTIGRMRASRAAAGAPVPYPDPLEPRP
notes: as for B1

Experiments:
DGI-2 polypeptide [1] = target: T1, DGI-2 polypeptide; test: phage ELISA, 405 nm; DGI-2 coated
Experimental: (§1) For analysis of individual target binders, colonies were picked and phage prepared as described above using helper phage, M13KO7. Ninety-six-well microtiter plates were coated with 500 ng/well of specific target protein, 500 ng/well lactate dehydrogenase (LDH) irrelevant or non-specific target, 500 ng/well of positive control antibody raised against ETAG, and negative control of non-fat milk powder-PBS 2% at 4° C. overnight. Plates were then blocked with 350 microliters/well PBS containing 2% non-fat milk for 1 hr at room temperature. One hundred microliters per well of phage from isolated clones were added and plates were incubated at room temperature for 2 hr after centrifuging samples for 20 minutes at 3500 rpm at 4° C. The phage solution was then removed, and the wells were washed three times with PBS at room temperature. Antibody raised against M13 conjugated to horseradish peroxidase (Pharmacia) was diluted 1:3000 in PBS-Tween and added to each well (100 µl/well). Incubation was for 1 hr at room temperature, followed by washing with PBS-(0.5%) Tween 3 times as described. Color was developed by addition of ABTS solution (100 µl/well; Boehringer, Indianapolis, Ind.). Plates were analyzed at 405 nm. A clone was considered "positive" if the $A405$ of the well was $\geq$2-fold over background.

[2] = target: T2, antibody raised against ETAG; test: phage ELISA, 405 nm; anti-E-tag antibody coated
T2 construct: read-out of display; also called E-tag antibody; E tag antibody
Experimental: as §1

DGI-2 polypeptide [3] = target: T1, DGI-2 polypeptide; test: phage ELISA, 405 nm; DGI-2 signal over LDH signal
Experimental: as §1

Row | Binder | DGI-2 (OD) (DGI-2 polypeptide [1]) | ETAG (OD) [2] [OD] | DGI-2/LDH (OD) (DGI-2 polypeptide [3]) [ratio]
1 | B1 | 0.8 | 6.3 | 1.2
2 | B2 | 1.5 | 10.3 | 1.7
3 | B3 | 0.9 | 8.7 | 1.1
4 | B4 | 1.5 | 8.5 | 1.4
5 | B5 | 0.9 | 4.6 | 1.1
6 | B6 | 1.2 | 8.8 | 1.5
7 | B7 | 0.9 | 0.9 | 1.1
8 | B8 | 1.1 | 3.6 | 1.1
9 | B9 | 1.2 | 11.4 | 1.2
10 | B10 | 1 | 10.4 | 1.3
11 | B11 | 1 | 9.2 | 1.2
12 | B12 | 1.6 | 11.5 | 1.4
13 | B13 | 1.3 | 11.5 | 1.3
14 | B14 | 1.4 | 19.9 | 1.4
15 | B15 | 1.5 | 13.2 | 1.4
16 | B16 | 1 | 4.6 | 1.3
